Where two headings read alike, the source gives them in different places.
T1: FLAG-tagged mouse Ang2 (mouse, UniProt O35608 19-496)
T1 construct: N-terminally FLAG-tagged, conditioned medium of HEK293T cells; also called mAng2; FLAG-mAng2
T1 sequence: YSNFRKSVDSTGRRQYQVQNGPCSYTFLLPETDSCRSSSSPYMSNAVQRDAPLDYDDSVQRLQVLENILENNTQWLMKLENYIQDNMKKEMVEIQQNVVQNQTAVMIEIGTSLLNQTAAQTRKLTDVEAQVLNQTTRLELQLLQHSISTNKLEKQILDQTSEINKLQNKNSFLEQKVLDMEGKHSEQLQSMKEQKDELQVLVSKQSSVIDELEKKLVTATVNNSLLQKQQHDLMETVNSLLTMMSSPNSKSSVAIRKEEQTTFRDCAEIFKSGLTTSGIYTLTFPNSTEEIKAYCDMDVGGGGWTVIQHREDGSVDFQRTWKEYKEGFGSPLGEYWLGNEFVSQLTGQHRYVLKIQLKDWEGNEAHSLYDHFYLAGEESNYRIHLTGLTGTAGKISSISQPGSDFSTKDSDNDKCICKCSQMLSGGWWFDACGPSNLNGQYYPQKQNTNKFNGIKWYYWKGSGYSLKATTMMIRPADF

T2: FLAG-tagged cynomolgus Ang2 (cynomolgus, UniProt O15123 19-496 (human entry), limits assumed)
T2 construct: N-terminally FLAG-tagged, conditioned medium of HEK293T cells; also called cAng2; FLAG-cAng2
T2 chain: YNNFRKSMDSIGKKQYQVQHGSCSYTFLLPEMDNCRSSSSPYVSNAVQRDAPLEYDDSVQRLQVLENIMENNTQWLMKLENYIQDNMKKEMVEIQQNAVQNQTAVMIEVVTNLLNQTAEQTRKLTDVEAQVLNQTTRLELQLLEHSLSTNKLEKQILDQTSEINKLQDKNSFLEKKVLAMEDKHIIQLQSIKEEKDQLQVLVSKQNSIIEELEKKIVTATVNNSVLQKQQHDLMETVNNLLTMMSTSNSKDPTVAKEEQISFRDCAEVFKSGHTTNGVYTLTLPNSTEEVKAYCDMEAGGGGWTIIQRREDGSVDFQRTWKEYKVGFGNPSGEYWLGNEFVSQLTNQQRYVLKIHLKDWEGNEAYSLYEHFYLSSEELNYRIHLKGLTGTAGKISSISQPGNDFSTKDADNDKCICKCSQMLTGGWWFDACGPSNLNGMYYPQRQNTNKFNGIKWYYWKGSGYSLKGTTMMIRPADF

T3: FLAG-tagged recombinant human Ang1 (Alexis Biochemicals) (human, UniProt Q15389 20-498, limits assumed)
T3 construct: Bought reagent; also called hAng1; FLAG-hAng1
T3 sequence (looked up): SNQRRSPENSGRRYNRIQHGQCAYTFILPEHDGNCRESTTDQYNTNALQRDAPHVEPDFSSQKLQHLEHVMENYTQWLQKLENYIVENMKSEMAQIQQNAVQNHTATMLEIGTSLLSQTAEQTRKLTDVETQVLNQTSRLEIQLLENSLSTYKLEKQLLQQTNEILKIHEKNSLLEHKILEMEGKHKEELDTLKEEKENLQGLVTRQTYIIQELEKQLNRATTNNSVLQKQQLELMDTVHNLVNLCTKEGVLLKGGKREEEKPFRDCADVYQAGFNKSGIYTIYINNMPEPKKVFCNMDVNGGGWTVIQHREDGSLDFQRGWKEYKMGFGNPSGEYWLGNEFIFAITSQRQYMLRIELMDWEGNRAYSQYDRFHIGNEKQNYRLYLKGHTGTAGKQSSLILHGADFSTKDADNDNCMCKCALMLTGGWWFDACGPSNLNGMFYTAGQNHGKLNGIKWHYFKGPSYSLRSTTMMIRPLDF


Key:
[1] = molecular target: T1, FLAG-tagged mouse Ang2; assay: competition ELISA: FLAG-mAng2 binding to coated mTie2-Fc
Description: (§1) In brief, 2 μg/mL of recombinant mouse Tie2-Fc or cyno Tie2-Fc is coated overnight at 4° C. in a 96-well MaxiSorp plate (Nunc, Wiesbaden, Germany). Coated wells are blocked with a 1% casein solution.

[2] = molecular target: T1, FLAG-tagged mouse Ang2; assay: as above; remark: listed apart in the source
Description: as §1

[3] = molecular target: T2, FLAG-tagged cynomolgus Ang2; assay: competition ELISA: FLAG-cAng2 binding to coated cTie2-Fc
[4] = molecular target: T1, FLAG-tagged mouse Ang2; assay: competition ELISA: FLAG-mAng2 binding to coated mTie2-Fc; remark: listed apart in the source
Description: as §1

[5] = molecular target: T2, FLAG-tagged cynomolgus Ang2; assay: competition ELISA: FLAG-cAng2 binding to coated cTie2-Fc
Description: as §1

[6] = molecular target: T2, FLAG-tagged cynomolgus Ang2; assay: as above
Description: as §1

[7] = molecular target: T3, FLAG-tagged recombinant human Ang1 …; assay: competition ELISA, periplasmic extract, FLAG-hAng1 on hTie2/Fc
Description: In brief, human Tie2/Fc chimera (R&D Systems, Minneapolis, Minn., USA) is biotinylated using N-hydroxysulfosuccinimide ester of biotin (Thermo Fisher Scientific, Rockford, Ill., USA). […] To this mixture, the Acceptor beads and 0.3 nM biotinylated human Tie2/Fc chimeras are added and further incubated for 2 hours at room temperature. Finally, streptavidin conjugated Donor beads (Perkin Elmer, Waltham, Mass., US) are added and the mixture is incubated for an additional 2 hours at room temperature. Assay buffer is PBS+0.03% Tween-20+0.1% BSA. Fluorescence is measured using the Envision Multilabel Plate reader (Perkin Elmer, Waltham, Mass., USA) using an excitation wavelength of 680 nm and an emission wavelength of 520 nm. […] In brief, human or mouse Tie2/Fc chimera (R&D Systems, Minneapolis, Minn., USA) are immobilized at 2 μg/mL overnight at 4° C. in a 96-well MaxiSorp plate (Nunc, Wiesbaden, Germany). Wells are blocked with a 1% casein solution. […] This mixture is added to the Tie2/Fc coated well and incubated for 2 hours at room temperature. Residual binding of Ang is detected using HRP-conjugated anti-FLAG M2 antibody (Sigma, St Louis, Mo., USA).

| Binder | IC50 [1] | IC50 [2] | IC50 [3] | IC50 [4] | IC50 [5] | IC50 [6] | % inh [7] |
| --- | --- | --- | --- | --- | --- | --- | --- |
| VHH 00027 (VHH, not shown: small tags and cut ends, Variant of 28D10 carrying C50S/S53N and Q108L) VHH: EVQLVESGGGLVQAGGSLRLSCAASGFTLDDYAIGWFRQAPGKEREGVSSIRDNDGSTYYADSVKGRFTISSDNDKNTVYLQMNSLKPEDTAVYYCAAVPAGRLRFGEQWYPLYEYDAWGQGTLVTVSS | 2 nM | 1.98 nM | 0.728 nM | 1.98 nM | 0.7 nM | 0.728 nM | – |
| VHH 1E01 (VHH, Tested as periplasmic extract; also called 001E01; not shown: C-terminal c-myc tag and His6 tag) VHH: EVQLVESGGGLVQPGGSLRLSCVHSGTISSTHAMGWYRQAPGKQREHVATFTNRGSTYYAGSVKGRFTISRDNAKNTMYLQMNSLKPEDTAVYYCNTGPYWGQGTQVTVSS | – | – | – | – | – | – | 4% |

The remaining lines, values ahead:

| IC50 [1] | IC50 [2] | IC50 [3] | IC50 [4] | IC50 [5] | IC50 [6] | % inh [7] | Binder |
| --- | --- | --- | --- | --- | --- | --- | --- |
| 1.9 nM | – | 0.753 nM | 1.91 nM | 0.8 nM | – | – | VHH 00042 (VHH, not shown: small tags and cut ends) VHH: EVQLVESGGGLVQPGGSLRLSCAASGFTLDDYAIGWFRQAPGKEREGVSSIRDNDGSTYYADSVKGRFTISSDNSKNTVYLQMNSLRPEDTAVYYCAAVPAGRLRFGEQWYPLYEYDAWGQGTLVTVSS |
| – | 0.085 nM | 0.079 nM | 0.085 nM | – | 0.079 nM | – | VHH 00908 (VHH, not shown: small tags and cut ends) VHH: EVQLVESGGGLVQPGGSLRLSCAASGITLDDYAIGWFRQAPGKEREGVSSIRDNGGSTYYADSVKGRFTISSDNSKNTVYLQMNSLRPEDTAVYYCAAVPAGRLRYGEQWYPIYEYDAWGQGTLVTVSS |
